B1: Coiled-coil domain-containing protein 185 (Homo sapiens), Q8N715 (parent)
chain: MAGFSHFSQPPYRDLWEPPRPGGERESTQRLGGQRSGADSTACSRAGTPGAESEAGACWLHPHCSFTPRPRRRGCSDSLRGSRSLSDVARRPLERSRKHRPRSRRLEDAWGETGTKPRPAWQPQTQLPPQRPQPCPHYPLAQGDSPPPCPGGAGTPLSGTFRVEKAQGGDQWAVPLGRHLGRWSPSSVPSERSSVPSQKFKRHSACVCAQKRDSSDQVESLASRDSQPLASSKEMRSPHTQVLKSKLEEVVVSSQDQQIVALVLTRLKKAQRIRELQQQAAKAWEELKRSDQKVQMTLERERRLLLRQSQEQWQEKEQRKTLQSPEQRGLRRDSQRKNVPPGESRWKEQPEDQESPRQEKLEKARAQAEHRKQCQVRRLREQEKMLRNLREQHSLQLQRRLVEACRKRHLHAVEGQKKVQDTNLSSLINYQARKVLMDCQAKAEELLRQLSLEQSFQRSQEIHQGLRKERQRELREKAQKEEEQLQQARWRAGESEEQRKMRKRILVELADEKIRQARSHVHKTTRDKVQHLRELNHLREKNHHILKLKAEKEEKCHIEGIKEAIKKKEQRVQHISQGKDPNFQEFQKLPQASRREERAPPNSSLDQMVLEAQLRACQQNRGY
partner: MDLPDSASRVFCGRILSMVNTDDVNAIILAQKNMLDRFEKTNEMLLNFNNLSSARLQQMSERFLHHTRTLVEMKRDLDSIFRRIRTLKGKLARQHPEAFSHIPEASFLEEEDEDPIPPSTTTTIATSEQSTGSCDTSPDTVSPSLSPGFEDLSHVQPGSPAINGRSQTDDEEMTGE
B2: C-C motif chemokine 4 (Homo sapiens), P13236 (parent)
chain: MKLCVTVLSLLMLVAAFCSPALSAPMGSDPPTACCFSYTARKLPRNFVVDYYETSSLCSQPAVVFQTKRSKQVCADPSESWVQEYVYDLELN
partner: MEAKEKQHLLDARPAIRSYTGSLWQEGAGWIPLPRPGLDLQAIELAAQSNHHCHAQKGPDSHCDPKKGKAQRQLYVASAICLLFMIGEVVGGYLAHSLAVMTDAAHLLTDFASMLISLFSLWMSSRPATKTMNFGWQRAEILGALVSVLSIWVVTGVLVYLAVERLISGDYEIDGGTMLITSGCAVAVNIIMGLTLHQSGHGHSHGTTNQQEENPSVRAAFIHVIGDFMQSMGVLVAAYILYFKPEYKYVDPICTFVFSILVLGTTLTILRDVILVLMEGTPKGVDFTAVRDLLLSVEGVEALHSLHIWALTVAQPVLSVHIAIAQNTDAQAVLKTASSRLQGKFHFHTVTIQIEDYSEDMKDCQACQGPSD
B3: Angiomotin (Homo sapiens), Q4VCS5 (parent)
chain: MRNSEEQPSGGTTVLQRLLQEQLRYGNPSENRSLLAIHQQATGNGPPFPSGSGNPGPQSDVLSPQDHHQQLVAHAARQEPQGQEIQSENLIMEKQLSPRMQNNEELPTYEEAKVQSQYFRGQQHASVGAAFYVTGVTNQKMRTEGRPSVQRLNPGKMHQDEGLRDLKQGHVRSLSERLMQMSLATSGVKAHPPVTSAPLSPPQPNDLYKNPTSSSEFYKAQGPLPNQHSLKGMEHRGPPPEYPFKGMPPQSVVCKPQEPGHFYSEHRLNQPGRTEGQLMRYQHPPEYGAARPAQDISLPLSARNSQPHSPTSSLTSGGSLPLLQSPPSTRLSPARHPLVPNQGDHSAHLPRPQQHFLPNQAHQGDHYRLSQPGLSQQQQQQQQQHHHHHHHQQQQQQQPQQQPGEAYSAMPRAQPSSASYQPVPADPFAIVSRAQQMVEILSDENRNLRQELEGCYEKVARLQKVETEIQRVSEAYENLVKSSSKREALEKAMRNKLEGEIRRMHDFNRDLRERLETANKQLAEKEYEGSEDTRKTISQLFAKNKESQREKEKLEAELATARSTNEDQRRHIEIRDQALSNAQAKVVKLEEELKKKQVYVDKVEKMQQALVQLQAACEKREQLEHRLRTRLERELESLRIQQRQGNCQPTNVSEYNAAALMELLREKEERILALEADMTKWEQKYLEENVMRHFALDAAATVAAQRDTTVISHSPNTSYDTALEARIQKEEEEILMANKRCLDMEGRIKTLHAQIIEKDAMIKVLQQRSRKEPSKTEQLSCMRPAKSLMSISNAGSGLLSHSSTLTGSPIMEEKRDDKSWKGSLGILLGGDYRAEYVPSTPSPVPPSTPLLSAHSKTGSRDCSTQTERGTESNKTAAVAPISVPAPVAAAATAAAITATAATITTTMVAAAPVAVAAAAAPAAAAAPSPATAAATAAAVSPAAAGQIPAAASVASAAAVAPSAAAAAAVQVAPAAPAPVPAPALVPVPAPAAAQASAPAQTQAPTSAPAVAPTPAPTPTPAVAQAEVPASPATGPGPHRLSIPSLTCNPDKTDGPVFHSNTLERKTPIQILGQEPDAEMVEYLI
partner: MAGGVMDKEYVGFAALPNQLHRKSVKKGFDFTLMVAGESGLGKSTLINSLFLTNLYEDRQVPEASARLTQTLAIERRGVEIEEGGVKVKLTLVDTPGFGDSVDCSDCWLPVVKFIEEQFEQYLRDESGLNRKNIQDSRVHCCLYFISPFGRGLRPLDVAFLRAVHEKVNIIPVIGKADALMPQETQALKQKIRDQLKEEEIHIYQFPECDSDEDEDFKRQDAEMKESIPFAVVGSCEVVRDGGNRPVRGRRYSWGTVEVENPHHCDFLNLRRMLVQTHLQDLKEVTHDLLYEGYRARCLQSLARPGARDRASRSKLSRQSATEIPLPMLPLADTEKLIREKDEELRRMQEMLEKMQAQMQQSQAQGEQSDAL
B4: Spermatogenesis-associated protein 2 (Homo sapiens), Q9UM82 (parent)
chain: MGKPSSMDTKFKDDLFRKYVQFHESKVDTTTSRQRPGSDECLRVAASTLLSLHKVDPFYRFRLIQFYEVVESSLRSLSSSSLRALHGAFSMLETVGINLFLYPWKKEFRSIKTYTGPFVYYVKSTLLEEDIRAILSCMGYTPELGTAYKLRELVETLQVKMVSFELFLAKVECEQMLEIHSQVKDKGYSELDIVSERKSSAEDVRGCSDALRRRAEGREHLTASMSRVALQKSASERAAKDYYKPRVTKPSRSVDAYDSYWESRKPPLKASLSLRKEPVATDVGDDLKDEIIRPSPSLLTMASSPHGSPDVLPPASPSNGPALLRGTYFSTQDDVDLYTDSEPRATYRRQDALRPDVWLLRNDAHSLYHKRSPPAKESALSKCQSCGLSCSSSLCQRCDSLLTCPPASKPSAFPSKASTHDSLAHGASLREKYPGQTQGLDRLPHLHSKSKPSTTPTSRCGFCNRPGATNTCTQCSKVSCDACLSAYHYDPCYKKSELHKFMPNNQLNYKSTQLSHLVYR

Variants of: B1
Details: with kxdl1_human KXD1, Q9BQD3

effect of a mutation on the interaction	Variant
with no effect	S603G

Variants of: B2
Details: with znt2_human SLC30A2, Q9BRI3

effect of a mutation on the interaction	Variant
disrupting interaction strength	A21V
with no effect	C18R
disrupting interaction strength	A16T

Variants of: B3
Details: with sept1_human SEPTIN1, Q8WYJ6

effect of a mutation on the interaction	Variant
with no effect	T899A

Variants of: B4
Details: with traf2_human TRAF2, Q12933
Chain of traf2_human TRAF2, Q12933 (Q12933 whole entry): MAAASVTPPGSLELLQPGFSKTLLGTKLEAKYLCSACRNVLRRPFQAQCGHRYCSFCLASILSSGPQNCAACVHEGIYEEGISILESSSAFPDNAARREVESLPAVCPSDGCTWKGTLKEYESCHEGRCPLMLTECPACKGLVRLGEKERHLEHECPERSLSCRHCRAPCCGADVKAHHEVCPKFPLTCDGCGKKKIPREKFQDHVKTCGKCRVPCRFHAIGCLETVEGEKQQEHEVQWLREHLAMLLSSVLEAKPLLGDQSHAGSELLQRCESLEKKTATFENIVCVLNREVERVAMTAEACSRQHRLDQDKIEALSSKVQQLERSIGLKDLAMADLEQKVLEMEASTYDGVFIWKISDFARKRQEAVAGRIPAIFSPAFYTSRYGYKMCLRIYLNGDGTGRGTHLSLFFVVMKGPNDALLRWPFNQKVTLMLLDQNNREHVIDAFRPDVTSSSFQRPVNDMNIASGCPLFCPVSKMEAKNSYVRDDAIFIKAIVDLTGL

effect of a mutation on the interaction	Variant
disrupting interaction strength	L443F

Reference: IntAct's records for PubMed 31515488
